According to the Human Domainome abundance scans (Beltran et al. 2025):
± gives the uncertainty stated by the source.

B1: PDZ and LIM domain protein 2, residues 284 to 339; numbered along this chain, Q96JY6 (parent)
chain: HTCEKCSTSIANQAVRIQEGRYRHPGCYTCADCGLNLKMRGHFWVGDELYCEKHAR

Variants of: B1
Experiment: abundance fitness (aPCA) (normalised: wild type 0, dead -1); higher = more abundant; growth selection in yeast, the domain comes from the species named
Conditions: Homo sapiens
In the case of HTCEKCSTSIANQAVRIQEGRYRHGGCYTCADCGLNLKMRGHFWVGDELYCEKHAR [P25G], the abundance fitness is reported as -0.053 ± 0.091. With HTCEKCSTSIANQAVRIQEGRYRHYGCYTCADCGLNLKMRGHFWVGDELYCEKHAR [P25Y] the abundance fitness was -0.414 ± 0.27. HTCEKCSTSIANQAVRIQEGRYRHQGCYTCADCGLNLKMRGHFWVGDELYCEKHAR [P25Q] gave an abundance fitness of 0.035 ± 0.083. In the case of HTCEKCSTSIANQAVRIQEGRYRHIGCYTCADCGLNLKMRGHFWVGDELYCEKHAR [P25I], the abundance fitness is reported as -0.033 ± 0.062. Variant HTCEKCSTSIANQAIRIQEGRYRHPGCYTCADCGLNLKMRGHFWVGDELYCEKHAR [V15I] has an abundance fitness of -0.105 ± 0.16. Variant HTCEKCSTSIANQAVRIQEGRYRHPGCYTCNDCGLNLKMRGHFWVGDELYCEKHAR [A31N] has an abundance fitness of 0.086 ± 0.12. For HTCEKCSTSIANQAVRIQEGRYRHPGCYTCSDCGLNLKMRGHFWVGDELYCEKHAR [A31S], the abundance fitness was -0.103 ± 0.085. In the case of HTCEKCSTSIANQAVRIQEGRYRHPGCYTCEDCGLNLKMRGHFWVGDELYCEKHAR [A31E], the abundance fitness is reported as 0.082 ± 0.12. HTCEKCSTSIANQAVRIQEGRYRHPGCYTCADCGLNLNMRGHFWVGDELYCEKHAR [K38N] gave an abundance fitness of -0.124 ± 0.15. Variant HTCEKCSTSIANQAVRIQEGRYRHPGCYTCADCGLNLTMRGHFWVGDELYCEKHAR [K38T] has an abundance fitness of -0.115 ± 0.12. Variant HTCEKCSTSIANQAVRIQEGRYRHPGCYCCADCGLNLKMRGHFWVGDELYCEKHAR [T29C] has an abundance fitness of -0.23 ± 0.064. With HTCEKCSTSIANQAVRIQEGRYRHPGCYTCADCGANLKMRGHFWVGDELYCEKHAR [L35A] the abundance fitness was 0.102 ± 0.072. Work on HTCEKCSTSIANQAVRIQEGRYRHPGCYTCADCGSNLKMRGHFWVGDELYCEKHAR [L35S] yielded an abundance fitness of 0.005 ± 0.07. HTCEKCSTSIANQAVRIQEGRYRHPGCYTCADCGWNLKMRGHFWVGDELYCEKHAR [L35W] gave an abundance fitness of -0.054 ± 0.088. HTCEKCSTSIANQAVRIQEGRYRHPGCYTCAACGLNLKMRGHFWVGDELYCEKHAR [D32A] showed an abundance fitness of -0.361 ± 0.078. Work on HTCEKCSTSIANQAVRIQEGRYRHPGCYTCAVCGLNLKMRGHFWVGDELYCEKHAR [D32V] yielded an abundance fitness of -0.245 ± 0.093. With HTCEKCSTSIANQAVRIQEGRYRHPGCYTCAGCGLNLKMRGHFWVGDELYCEKHAR [D32G] the abundance fitness was -0.178 ± 0.054. HTCEKCSTSIANQAVRIQEGRYRHPGCYTCAQCGLNLKMRGHFWVGDELYCEKHAR [D32Q] gave an abundance fitness of -0.336 ± 0.096. For HTCEKCSTSIANQAVRIQEGRYRHPGMYTCADCGLNLKMRGHFWVGDELYCEKHAR [C27M], the abundance fitness was -0.627 ± 0.099. Variant HTCEKCSTSIANQAVRIQEGRYRHPGWYTCADCGLNLKMRGHFWVGDELYCEKHAR [C27W] has an abundance fitness of -0.602 ± 0.12. Work on HTCEKCSTSIANQAVRIQEGRYRHPGCYTCADCGLNLKMRKHFWVGDELYCEKHAR [G41K] yielded an abundance fitness of -0.169 ± 0.12. Variant HTCEKCSTSIANQAVRIQEGRYRHPGCYTCADCGLNLKMRCHFWVGDELYCEKHAR [G41C] has an abundance fitness of -0.408 ± 0.095. With HTCEKCSTSIANQAVRIQEGRYRHPGCYTCADCGLNLKMRGHFWVGDELVCEKHAR [Y50V] the abundance fitness was 0.072 ± 0.086. Work on HTCEKCSTSIANQAVRIQEGRYRAPGCYTCADCGLNLKMRGHFWVGDELYCEKHAR [H24A] yielded an abundance fitness of -0.307 ± 0.098. Variant HTCEKCSTSIANQAVRIQEGRYRHPGCYTCADCGLNLKMRGHFWVGDELYCERHAR [K53R] has an abundance fitness of -0.124 ± 0.06. In the case of HTCEKCSTSIANQAVRIQEGRYRHPGCYTCADCGLNLKMRGHFWVGDELYCEYHAR [K53Y], the abundance fitness is reported as 0.252 ± 0.2. Variant HTCEKCSTSIANQAVRIQEGRYRHPGCYTCADCGLNLKMRGHFWVGDETYCEKHAR [L49T] has an abundance fitness of -0.207 ± 0.097. Variant HTCEKCSTSIQNQAVRIQEGRYRHPGCYTCADCGLNLKMRGHFWVGDELYCEKHAR [A11Q] has an abundance fitness of -0.253 ± 0.14. For HTCEKCSTSIANQAVRIGEGRYRHPGCYTCADCGLNLKMRGHFWVGDELYCEKHAR [Q18G], the abundance fitness was -0.088 ± 0.066. Work on HTCEKCSTSIANQAVRIQEGNYRHPGCYTCADCGLNLKMRGHFWVGDELYCEKHAR [R21N] yielded an abundance fitness of -0.259 ± 0.18. Work on HTCEKCSTSIANQAVRIQEGHYRHPGCYTCADCGLNLKMRGHFWVGDELYCEKHAR [R21H] yielded an abundance fitness of -0.015 ± 0.055. Work on HTAEKCSTSIANQAVRIQEGRYRHPGCYTCADCGLNLKMRGHFWVGDELYCEKHAR [C3A] yielded an abundance fitness of -1.1 ± 0.2. With HTKEKCSTSIANQAVRIQEGRYRHPGCYTCADCGLNLKMRGHFWVGDELYCEKHAR [C3K] the abundance fitness was -0.45 ± 0.12. With HTDEKCSTSIANQAVRIQEGRYRHPGCYTCADCGLNLKMRGHFWVGDELYCEKHAR [C3D] the abundance fitness was -1.02 ± 0.31. In the case of HTCLKCSTSIANQAVRIQEGRYRHPGCYTCADCGLNLKMRGHFWVGDELYCEKHAR [E4L], the abundance fitness is reported as -0.473 ± 0.066. HTCNKCSTSIANQAVRIQEGRYRHPGCYTCADCGLNLKMRGHFWVGDELYCEKHAR [E4N] gave an abundance fitness of 0.14 ± 0.09. HTCEKCSTSIANQAVRIQEGRYRHPGCYTHADCGLNLKMRGHFWVGDELYCEKHAR [C30H] showed an abundance fitness of -0.669 ± 0.47. With HTCEKCWTSIANQAVRIQEGRYRHPGCYTCADCGLNLKMRGHFWVGDELYCEKHAR [S7W] the abundance fitness was -0.641 ± 0.1. With HTCEKCPTSIANQAVRIQEGRYRHPGCYTCADCGLNLKMRGHFWVGDELYCEKHAR [S7P] the abundance fitness was -0.613 ± 0.2. In the case of HTCEKCSTSIANSAVRIQEGRYRHPGCYTCADCGLNLKMRGHFWVGDELYCEKHAR [Q13S], the abundance fitness is reported as -0.128 ± 0.13. In the case of HTCEKCSTSIANPAVRIQEGRYRHPGCYTCADCGLNLKMRGHFWVGDELYCEKHAR [Q13P], the abundance fitness is reported as -0.227 ± 0.13. HTCEKCSTSIANQAVRIQEGRYRHPICYTCADCGLNLKMRGHFWVGDELYCEKHAR [G26I] showed an abundance fitness of 0.08 ± 0.2. With HTCEKCSTSIANQAVRIQEGRYRHPACYTCADCGLNLKMRGHFWVGDELYCEKHAR [G26A] the abundance fitness was 0.033 ± 0.091. For HTCEKCSTSIANQAVRIQEGRYRHPGCYTCADCGLNLKMRGHPWVGDELYCEKHAR [F43P], the abundance fitness was -0.058 ± 0.084. Variant HTCEKCSTSIANQAVRIQEGRYRHPGCYTCADCGLNLKMRGHFWVGDELYCEKHQR [A55Q] has an abundance fitness of 0.041 ± 0.15. With HTCEKCSTSIANQAVRIQEGRYRHPGCYTCADCGLNLKMRGHFWVGDELYCEKHTR [A55T] the abundance fitness was -0.013 ± 0.11. HTCEKCSTSIANQAVRIQEGRYRHPGCYTCADCGLNLKMRGHFSVGDELYCEKHAR [W44S] gave an abundance fitness of 0.027 ± 0.098.
